Patent US20220298260A1 (MYTHIC THERAPEUTICS, published 2022)
Where a chain is given by its changes, count along the chain named.

Molecular target: T1, FOLR1 (R&D Systems, Cat #5646-FR) (human, UniProt P15328 25-233)
T1 construct: Bought soluble protein; also called Folate Receptor 1
Test: BLI, IgG on anti-human Fc sensor, 50 nM FOLR1

T1 sequence (P15328 25-233 limits assumed): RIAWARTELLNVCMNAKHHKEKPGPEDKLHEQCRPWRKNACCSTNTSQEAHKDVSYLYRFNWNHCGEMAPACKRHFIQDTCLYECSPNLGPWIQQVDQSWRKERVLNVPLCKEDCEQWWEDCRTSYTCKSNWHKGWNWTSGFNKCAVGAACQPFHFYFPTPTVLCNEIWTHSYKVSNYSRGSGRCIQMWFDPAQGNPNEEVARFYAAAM

B1: MYT1588 (antibody, V domains shown)
VH: QVQLVQSGAEVVKPGASVKISCKASGYTFTGYFMNWVKQSPGQSLEWIGRIHPYDGDTFYNQKFQGKATLTVDKSSNTAHMELLSLTSEDFAVYYCTRYDGSRAMDYWGQGTTVTVSS
VL: DIVLTQSPLSLAVSLGQPAIISCKASQSVSFAGTSLMHWYHQKPGQQPRLLIYRASNLEAGVPDRFSGSGSKTDFTLTISPVEAEDAATYYCQQSREYPHTFGGGTKLEIK
notes: IgG
- binding result: binds

B2: MYT1589 (antibody, V domains shown)
VH: B1 VH
VL: B1 VL with H100Y, T101H
notes: IgG
- binding result: binds

B3: MYT2225 (antibody, V domains shown)
VH: EVQLVESGGGLVQPGGSLRLSCAASHFNIRTQSIHWVRQAPGKGLEWIGDIFPIDGITDYADSVKGRFTISADTSKNTAYLQMNSLRAEDTAVYYCARGSWSWPSGMDYYLDYWGQGTLVTVSS
VL: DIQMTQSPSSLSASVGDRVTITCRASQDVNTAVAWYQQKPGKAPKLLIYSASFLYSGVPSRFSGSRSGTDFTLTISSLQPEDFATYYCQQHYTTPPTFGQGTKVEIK
notes: IgG
- binding result: binds

B4: MYT2256 (antibody, V domains shown)
VH: B3 VH with H26G, W101H
VL: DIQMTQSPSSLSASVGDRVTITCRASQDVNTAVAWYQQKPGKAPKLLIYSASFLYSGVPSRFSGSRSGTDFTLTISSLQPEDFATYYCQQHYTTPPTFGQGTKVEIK
notes: IgG
- binding result: binds

B5: MYT2236 (antibody, V domains shown)
VH: B3 VH with H26G, I51H
VL: not shown
notes: IgG
- binding result: binds

B6: MYT2267 (antibody, V domains shown)
VH: B3 VH with H26G, D112H
VL: not shown
notes: IgG
- binding result: binds

B7: MYT4497 (antibody, V domains shown)
VH: B3 VH with H26G
VL: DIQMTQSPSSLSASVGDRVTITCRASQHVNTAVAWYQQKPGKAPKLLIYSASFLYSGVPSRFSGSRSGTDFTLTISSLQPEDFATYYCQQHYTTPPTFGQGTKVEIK
notes: IgG
- binding result: binds

B8: MYT2230 (antibody, V domains shown)
VH: B3 VH with H26G, T31H
VL: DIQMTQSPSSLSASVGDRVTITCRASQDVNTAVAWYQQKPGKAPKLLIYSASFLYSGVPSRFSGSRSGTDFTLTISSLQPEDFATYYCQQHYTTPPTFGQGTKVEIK
notes: IgG
- binding result: binds

B9: MYT2260 (antibody, V domains shown)
VH: B3 VH with H26G, S105H
VL: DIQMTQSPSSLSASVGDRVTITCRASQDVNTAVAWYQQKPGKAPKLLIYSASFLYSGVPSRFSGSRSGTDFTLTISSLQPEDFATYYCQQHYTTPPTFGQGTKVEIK
notes: IgG
- binding result: binds

B10: MYT4511 (antibody, V domains shown)
VH: B3 VH with H26G
VL: not shown
notes: IgG
- binding result: binds

B11: MYT2246 (antibody, V domains shown)
VH: B3 VH with H26G, A61H
VL: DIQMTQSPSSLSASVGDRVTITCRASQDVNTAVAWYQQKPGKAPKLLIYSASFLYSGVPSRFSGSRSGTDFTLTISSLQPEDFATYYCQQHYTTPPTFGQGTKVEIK
notes: IgG
- binding result: binds

B12: MYT2249 (antibody, V domains shown)
VH: B3 VH with H26G, V64H
VL: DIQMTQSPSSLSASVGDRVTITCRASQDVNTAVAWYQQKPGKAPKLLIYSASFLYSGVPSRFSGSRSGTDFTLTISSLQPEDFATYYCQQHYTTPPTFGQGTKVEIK
notes: IgG
- binding result: binds

B13: MYT4496 (antibody, V domains shown)
VH: B3 VH with H26G
VL: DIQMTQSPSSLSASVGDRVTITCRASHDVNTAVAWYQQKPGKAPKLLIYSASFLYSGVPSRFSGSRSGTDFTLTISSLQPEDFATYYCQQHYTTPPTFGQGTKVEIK
notes: IgG
- binding result: binds

B14: MYT4510 (antibody, V domains shown)
VH: B3 VH with H26G
VL: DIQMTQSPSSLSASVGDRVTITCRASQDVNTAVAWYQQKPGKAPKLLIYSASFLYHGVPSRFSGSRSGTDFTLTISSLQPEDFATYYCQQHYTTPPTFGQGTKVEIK
notes: IgG
- binding result: binds

B15: MYT2239 (antibody, V domains shown)
VH: B3 VH with H26G, I54H
VL: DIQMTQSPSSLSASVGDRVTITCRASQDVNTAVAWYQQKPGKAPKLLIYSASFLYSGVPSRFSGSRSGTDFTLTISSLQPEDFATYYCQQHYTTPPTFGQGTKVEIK
notes: IgG
- binding result: binds

B16: MYT2255 (antibody, V domains shown)
VH: B3 VH with H26G, S100H
VL: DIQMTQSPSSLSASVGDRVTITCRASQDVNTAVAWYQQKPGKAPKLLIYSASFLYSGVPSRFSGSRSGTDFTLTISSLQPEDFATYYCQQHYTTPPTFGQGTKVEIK
notes: IgG
- binding result: binds

B17: MYT2243 (antibody, V domains shown)
VH: B3 VH with H26G, T58H
VL: not shown
notes: IgG
- binding result: binds

B18: MYT2241 (antibody, V domains shown)
VH: B3 VH with H26G, G56H
VL: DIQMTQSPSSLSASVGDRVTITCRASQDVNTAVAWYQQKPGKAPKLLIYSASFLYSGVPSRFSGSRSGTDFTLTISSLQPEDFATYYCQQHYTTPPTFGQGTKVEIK
notes: IgG
- binding result: binds

B19: MYT2227 (antibody, V domains shown)
VH: B3 VH with H26G, N28H
VL: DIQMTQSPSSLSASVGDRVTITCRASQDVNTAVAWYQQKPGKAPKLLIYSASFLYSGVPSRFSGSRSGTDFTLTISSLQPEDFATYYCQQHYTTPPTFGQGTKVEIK
notes: IgG
- binding result: binds

B20: MYT2234 (antibody, V domains shown)
VH: B3 VH with H26G, H35A
VL: not shown
notes: IgG
- binding result: binds

B21: MYT2240 (antibody, V domains shown)
VH: B3 VH with H26G, D55H
VL: not shown
notes: IgG
- binding result: binds

B22: MYT2247 (antibody, V domains shown)
VH: B3 VH with H26G, D62H
VL: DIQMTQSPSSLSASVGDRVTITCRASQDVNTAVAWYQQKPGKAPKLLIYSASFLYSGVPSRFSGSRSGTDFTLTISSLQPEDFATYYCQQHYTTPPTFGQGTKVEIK
notes: IgG
- binding result: binds

B23: MYT2250 (antibody, V domains shown)
VH: B3 VH with H26G, K65H
VL: not shown
notes: IgG
- binding result: binds

B24: MYT4508 (antibody, V domains shown)
VH: B3 VH with H26G
VL: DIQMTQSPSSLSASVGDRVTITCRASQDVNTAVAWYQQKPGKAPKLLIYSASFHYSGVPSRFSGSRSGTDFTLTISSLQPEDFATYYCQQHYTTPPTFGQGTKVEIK
notes: IgG
- binding result: binds

B25: MYT2264 (antibody, V domains shown)
VH: B3 VH with H26G, Y109H
VL: not shown
notes: IgG
- binding result: binds

B26: MYT2228 (antibody, V domains shown)
VH: B3 VH with H26G, I29H
VL: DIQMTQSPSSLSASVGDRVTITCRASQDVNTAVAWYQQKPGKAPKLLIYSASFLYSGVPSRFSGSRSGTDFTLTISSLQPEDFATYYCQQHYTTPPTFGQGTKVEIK
notes: IgG
- binding result: binds

B27: MYT2268 (antibody, V domains shown)
VH: B3 VH with H26G, Y113H
VL: not shown
notes: IgG
- binding result: binds

B28: MYT2253 (antibody, V domains shown)
VH: B3 VH with H26G, R98H
VL: not shown
notes: IgG
- binding result: binds

B29: MYT4498 (antibody, V domains shown)
VH: B3 VH with H26G
VL: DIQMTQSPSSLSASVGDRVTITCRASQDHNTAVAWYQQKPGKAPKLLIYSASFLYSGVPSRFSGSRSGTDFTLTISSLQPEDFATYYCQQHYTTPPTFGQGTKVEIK
notes: IgG
- binding result: binds

B30: MYT2262 (antibody, V domains shown)
VH: B3 VH with H26G, M107H
VL: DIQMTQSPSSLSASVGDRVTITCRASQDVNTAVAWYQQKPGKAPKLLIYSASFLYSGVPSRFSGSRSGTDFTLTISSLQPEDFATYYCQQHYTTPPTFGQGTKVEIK
notes: IgG
- binding result: binds

B31: MYT2232 (antibody, V domains shown)
VH: B3 VH with H26G, S33H
VL: not shown
notes: IgG
- binding result: binds

B32: MYT4500 (antibody, V domains shown)
VH: B3 VH with H26G
VL: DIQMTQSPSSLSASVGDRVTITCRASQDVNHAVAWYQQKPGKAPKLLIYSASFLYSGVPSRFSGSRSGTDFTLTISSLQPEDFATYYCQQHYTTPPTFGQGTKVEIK
notes: IgG
- binding result: binds

B33: MYT4506 (antibody, V domains shown)
VH: B3 VH with H26G
VL: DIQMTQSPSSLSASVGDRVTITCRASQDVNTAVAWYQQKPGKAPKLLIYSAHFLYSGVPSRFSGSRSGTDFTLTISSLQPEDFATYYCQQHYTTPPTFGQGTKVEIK
notes: IgG
- binding result: binds

B34: MYT2257 (antibody, V domains shown)
VH: B3 VH with H26G, S102H
VL: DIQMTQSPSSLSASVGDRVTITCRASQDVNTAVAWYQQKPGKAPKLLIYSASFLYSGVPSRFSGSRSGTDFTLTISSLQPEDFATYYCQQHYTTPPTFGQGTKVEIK
notes: IgG
- binding result: binds

B35: MYT4509 (antibody, V domains shown)
VH: B3 VH with H26G
VL: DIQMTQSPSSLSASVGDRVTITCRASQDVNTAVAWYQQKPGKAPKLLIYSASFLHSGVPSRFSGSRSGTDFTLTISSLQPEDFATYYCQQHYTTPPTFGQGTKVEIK
notes: IgG
- binding result: binds

B36: MYT4507 (antibody, V domains shown)
VH: B3 VH with H26G
VL: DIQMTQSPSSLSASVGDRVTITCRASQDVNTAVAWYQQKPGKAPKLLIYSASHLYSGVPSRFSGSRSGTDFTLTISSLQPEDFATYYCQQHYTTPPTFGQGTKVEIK
notes: IgG
- binding result: binds

B37: MYT2235 (antibody, V domains shown)
VH: B3 VH with H26G, D50H
VL: not shown
notes: IgG
- binding result: binds

B38: MYT2265 (antibody, V domains shown)
VH: B3 VH with H26G, Y110H
VL: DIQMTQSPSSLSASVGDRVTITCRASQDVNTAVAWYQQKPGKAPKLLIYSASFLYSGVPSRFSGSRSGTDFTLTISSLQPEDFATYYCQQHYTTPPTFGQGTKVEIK
notes: IgG
- binding result: binds

B39: MYT2226 (antibody, V domains shown)
VH: B3 VH with H26G, F27H
VL: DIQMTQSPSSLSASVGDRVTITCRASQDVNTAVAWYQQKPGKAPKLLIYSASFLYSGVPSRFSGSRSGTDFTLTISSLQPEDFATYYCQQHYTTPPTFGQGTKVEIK
notes: IgG
- binding result: binds

B40: MYT4493 (antibody, V domains shown)
VH: B3 VH with H26G
VL: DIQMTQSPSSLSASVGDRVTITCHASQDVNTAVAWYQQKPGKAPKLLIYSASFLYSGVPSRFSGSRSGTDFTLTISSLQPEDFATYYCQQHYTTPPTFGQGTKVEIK
notes: IgG
- binding result: binds

B41: MYT4499 (antibody, V domains shown)
VH: B3 VH with H26G
VL: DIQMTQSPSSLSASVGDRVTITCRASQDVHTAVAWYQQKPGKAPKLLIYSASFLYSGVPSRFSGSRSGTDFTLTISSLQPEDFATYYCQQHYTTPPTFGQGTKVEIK
notes: IgG
- binding result: binds

B42: MYT2229 (antibody, V domains shown)
VH: B3 VH with H26G, R30H
VL: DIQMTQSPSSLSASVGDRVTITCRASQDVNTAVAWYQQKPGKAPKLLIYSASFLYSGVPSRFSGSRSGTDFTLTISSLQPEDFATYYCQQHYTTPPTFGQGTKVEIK
notes: IgG
- binding result: binds

B43: MYT2251 (antibody, V domains shown)
VH: B3 VH with H26G, G66H
VL: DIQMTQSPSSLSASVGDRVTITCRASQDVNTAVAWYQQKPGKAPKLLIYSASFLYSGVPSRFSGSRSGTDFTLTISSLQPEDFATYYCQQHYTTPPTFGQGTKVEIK
notes: IgG
- binding result: binds

B44: MYT4495 (antibody, V domains shown)
VH: B3 VH with H26G
VL: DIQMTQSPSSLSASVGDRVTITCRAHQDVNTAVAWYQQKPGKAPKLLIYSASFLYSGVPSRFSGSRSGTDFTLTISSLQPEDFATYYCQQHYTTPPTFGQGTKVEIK
notes: IgG
- binding result: binds

B45: MYT2231 (antibody, V domains shown)
VH: B3 VH with H26G, Q32H
VL: not shown
notes: IgG
- binding result: binds

B46: MYT2242 (antibody, V domains shown)
VH: B3 VH with H26G, I57H
VL: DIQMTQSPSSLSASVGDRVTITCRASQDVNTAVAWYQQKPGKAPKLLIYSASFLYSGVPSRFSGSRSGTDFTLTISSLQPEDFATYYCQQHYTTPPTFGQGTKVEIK
notes: IgG
- binding result: binds

B47: MYT2266 (antibody, V domains shown)
VH: B3 VH with H26G, L111H
VL: not shown
notes: IgG
- binding result: binds

B48: MYT2245 (antibody, V domains shown)
VH: B3 VH with H26G, Y60H
VL: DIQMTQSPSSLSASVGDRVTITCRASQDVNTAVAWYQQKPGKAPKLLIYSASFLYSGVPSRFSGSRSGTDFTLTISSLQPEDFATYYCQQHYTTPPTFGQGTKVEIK
notes: IgG
- binding result: binds

B49: MYT2258 (antibody, V domains shown)
VH: B3 VH with H26G, W103H
VL: not shown
notes: IgG
- binding result: binds

B50: MYT4494 (antibody, V domains shown)
VH: B3 VH with H26G
VL: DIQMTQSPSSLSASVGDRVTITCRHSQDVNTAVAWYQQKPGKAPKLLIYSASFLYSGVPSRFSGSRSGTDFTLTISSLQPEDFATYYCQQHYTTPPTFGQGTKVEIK
notes: IgG
- binding result: binds

B51: MYT2263 (antibody, V domains shown)
VH: B3 VH with H26G, D108H
VL: not shown
notes: IgG
- binding result: binds

B52: MYT2237 (antibody, V domains shown)
VH: B3 VH with H26G, F52H
VL: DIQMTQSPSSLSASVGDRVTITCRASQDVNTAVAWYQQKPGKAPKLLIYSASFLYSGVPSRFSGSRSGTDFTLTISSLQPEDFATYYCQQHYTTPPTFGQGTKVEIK
notes: IgG
- binding result: binds

B53: MYT4504 (antibody, V domains shown)
VH: B3 VH with H26G
VL: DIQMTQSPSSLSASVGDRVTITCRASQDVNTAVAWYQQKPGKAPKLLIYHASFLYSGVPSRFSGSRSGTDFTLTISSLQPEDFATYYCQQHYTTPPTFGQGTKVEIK
notes: IgG
- binding result: binds

B54: MYT2248 (antibody, V domains shown)
VH: B3 VH with H26G, S63H
VL: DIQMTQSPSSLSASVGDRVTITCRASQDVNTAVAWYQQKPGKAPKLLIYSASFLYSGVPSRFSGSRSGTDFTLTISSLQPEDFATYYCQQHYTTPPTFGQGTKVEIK
notes: IgG
- binding result: binds

B55: MYT4502 (antibody, V domains shown)
VH: B3 VH with H26G
VL: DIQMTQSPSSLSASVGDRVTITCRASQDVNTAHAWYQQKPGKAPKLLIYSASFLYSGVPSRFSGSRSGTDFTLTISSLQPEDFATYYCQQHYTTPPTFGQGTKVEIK
notes: IgG
- binding result: binds

B56: MYT2238 (antibody, V domains shown)
VH: B3 VH with H26G, P53H
VL: not shown
notes: IgG
- binding result: binds

B57: MYT2233 (antibody, V domains shown)
VH: B3 VH with H26G, I34H
VL: not shown
notes: IgG
- binding result: binds
